The target of assay [1] is T1, human TIM-3 coupled to Fc (human, UniProt Q8TDQ0 22-200). The experiment in a line: SPR; crude periplasmic extract.
Assay [2] deals with T1, human TIM-3 coupled to Fc. The experiment in a line: SPR; culture supernatant.

B1: anti-TIM-3 antibody clone 1B9 (antibody, V domains shown)
VH: QVQLQQWGAGLLKPSETLSLTCAVYGGSFSGYYWSWIRQPPGKGLEWIGEINHSGSTNYNPSLKSRVTISVDTSKNQFSLKLSSVTAADTAVYYCARGYVAGSDAWGQGTLVTVSS
VL: QSVLTQPPSVSAAPGQKVTISCSGSSSNIGNNYVSWYQQLPGTAPKLLIYGNNWRPSGIPDRFSGSKSGTSATLGITGLQTGDEADYYCEAWDYYVAAGYFGGGTKLTVL
For the molecule B1, the figures for the koff in assay [1] and in assay [2] were 2.8e-05 s⁻¹ and 4.3e-05 s⁻¹, respectively.

B2: anti-TIM-3 antibody clone 1H10 (antibody, V domains shown)
VH: QVQLQQWGAGLLKPSETLSLTCAVYGGSFSGYYWSWIRQPPGKGLEWIGEINHSGSTNYNPSLKSRVTISVDTSKNQFSLKLSSVTAADTAVYYCARGYVAGFDSWGQGTLVTVSS
VL: QSVLTQPPSVSAAPGQKVTISCSGSSSNIGNNYVSWYQQLPGTAPKLLIYGNNWRPSGIPDRFSGSKSGTSATLGITGLQTGDEADYYCDSWDYDYAAGVFGGGTKLTVL
As for B2, the results for the koff in assay [1] and in assay [2] were 2.3e-05 s⁻¹ and 2.9e-05 s⁻¹, respectively.

B3: anti-TIM-3 antibody clone 1H9 (antibody, V domains shown)
VH: QVQLQQWGAGLLKPSETLSLTCAVYGGSFSGYYWSWIRQPPGKGLEWIGEINHSGSTNYNPSLKSRVTISVDTSKNQFSLKLSSVTAADTAVYYCARGYVAGFDDWGQGTLVTVSS
VL: QSVLTQPPSVSAAPGQKVTISCSGSSSNIGNNYVSWYQQLPGTAPKLLIYGNNWRPSGIPDRFSGSKSGTSATLGITGLQTGDEADYYCDSWDSADASGVFGGGTKLTVL
B3: the koff (as a rule, a measure of how fast the partners let go of each other) in assay [1] was found to be 7e-05 s⁻¹; in assay [2], 0.00016 s⁻¹.

B4: anti-TIM-3 antibody clone 2C7 (antibody, V domains shown)
VH: QVQLQQWGAGLLKPSETLSLTCAVYGGSFSGYYWSWIRQPPGKGLEWIGEINHSGSTNYNPSLKSRVTISVDTSKNQFSLKLSSVTAADTAVYYCARGYVAGYDYWGQGTLVTVSS
VL: QSVLTQPPSVSAAPGQKVTISCSGSSSNIGNNYVSWYQQLPGTAPKLLIYGNNWRPSGIPDRFSGSKSGTSATLGITGLQTGDEADYYCDSWDSYLAAGVFGGGTKLTVL
For the molecule B4, the figures for the koff in assay [1] and in assay [2] were 0.00019 s⁻¹ and 0.00021 s⁻¹, respectively.

B5: anti-TIM-3 antibody clone 1F4 (antibody, V domains shown)
VH: QVQLQQWGAGLLKPSETLSLTCAVYGGSFSGYYWSWIRQPPGKGLEWIGEINHSGSTNYNPSLKSRVTISVDTSKNQFSLKLSSVTAADTAVYYCARGYVAGYDYWGQGTLVTVSS
VL: QSVLTQPPSVSAAPGQKVTISCSGSSSNIGNNYVSWYQQLPGTAPKLLIYGNNWRPSGIPDRFSGSKSGTSATLGITGLQTGDEADYYCDSWDAALSAGVFGGGTKLTVL
Consider B5, for which the values for the koff in assay [1] and in assay [2] were 0.00029 s⁻¹ and 0.0003 s⁻¹, respectively.

B6: anti-TIM-3 antibody clone 1D9 (antibody, V domains shown)
VH: QVQLQQWGAGLLKPSETLSLTCAVYGGSFSGYYWSWIRQPPGKGLEWIGEINHSGSTNYNPSLKSRVTISVDTSKNQFSLKLSSVTAADTAVYYCARGYYAGDDYWGQGTLVTVSS
VL: QSVLTQPPSVSAAPGQKVTISCSGSSSNIGNNYVSWYQQLPGTAPKLLIYGNNWRPSGIPDRFSGSKSGTSATLGITGLQTGDEADYYCEAWDSAYAAGSFGGGTKLTVL
Take B6: the koff in assay [1] and in assay [2] was 0.00018 s⁻¹ throughout.

B7: anti-TIM-3 antibody clone 2G6 (antibody, V domains shown)
VH: QVQLQQWGAGLLKPSETLSLTCAVYGGSFSGYYWSWIRQPPGKGLEWIGEINHSGSTNYNPSLKSRVTISVDTSKNQFSLKLSSVTAADTAVYYCARGYVAGFDSWGQGTLVTVSS
VL: QSVLTQPPSVSAAPGQKVTISCSGSSSNIGNNYVSWYQQLPGTAPKLLIYGNNWRPSGIPDRFSGSKSGTSATLGITGLQTGDEADYYCDSWDSSDSSGVFGGGTKLTVL
For the molecule B7, the figures for the koff in assay [1] and in assay [2] were 0.00022 s⁻¹ and 0.00013 s⁻¹, respectively.

B8: anti-TIM-3 antibody clone 2F4 (antibody, V domains shown)
VH: QVQLQQWGAGLLKPSETLSLTCAVYGGSFSGYYWSWIRQPPGKGLEWIGEINHSGSTNYNPSLKSRVTISVDTSKNQFSLKLSSVTAADTAVYYCARGYVAGSDAWGQGTLVTVSS
VL: QSVLTQPPSVSAAPGQKVTISCSGSSSNIGNNYVSWYQQLPGTAPKLLIYGNNWRPSGIPDRFSGSKSGTSATLGITGLQTGDEADYYCESWDYDYASGVFGGGTKLTVL
Take B8: the koff was 0.00014 s⁻¹ in assay [1] and 8.7e-05 s⁻¹ in assay [2].
